# From patent US20250249077A1, “NAMPT FOR WOUND-HEALING AND STIMULATING HAIR GROWTH AND/OR REGROWTH” (Innovative Surgical Regeneration Holdings, LLC, priority 2022, published 2025)
# “Also recorded” adds a separate entry of the source.
# Columns and labels:
# nondiabetic wounds = experiment: Splinted full thickness excisional wound model, nondiabetic (wildtype) mice; format: in vivo; conditions: versus control hydrogel
# Description: (§1) Diabetic, aged diabetic, and nondiabetic mice were purchased from JAX labs. Bilateral, symmetric full thickness wounds (which recapitulate complete skin tissue loss) were generated on the murine dorsum using a biopsy punch; wounds were treated with the disclosed therapeutic or the control vehicle.
# (§2) NAMPT hydrogel was administered on wounds, control hydrogel served as control.
# diabetic wounds [1] = experiment: Splinted full thickness excisional wound model, diabetic db/db mice; format: in vivo
# Description: as §1, §2
# hair follicles = experiment: Hair growth after intradermal injection of NAMPT in the skin of mice; format: in vivo
# Text: The mean number of hair follicles per field in the NAMiPT group is 33.93. The mean number of hair follicles per field in the control group is 27.47. The difference between the number of hair follicles per field between the NAMPT group and control group is statistically significant (p-value 0.0097 by unpaired t-test (GraphPad Prism 9).
# diabetic wounds [2] = experiment: Single-cell RNA sequencing of NAMPT treated versus control diabetic wounds; format: in vivo, mice
# Text: Studies including single-cell RNA sequencing performed by the authors have elucidated the mechanism of action of the disclosed novel treatment on complete skin regeneration and prevention of scarring.
# We performed gene ontology (GO) analysis on differentially expressed genes between the fibroblast clusters (clusters #0, #5, #10, and #12) to determine whether specific functions could be assigned to the different fibroblast subpopulations (FIG. 2A-E). […] Next, we performed gene ontology analysis on differentially expressed genes between NAMPT treated versus control Cluster #0 fibroblasts.
# We utilized the CellChat package to infer cell-cell communication in NAMPT treated diabetic wounds versus control diabetic wounds.
# Impaired cellular proliferation in diabetic wounds leads to delayed granulation tissue formation and delayed reepithelialization. We utilized the Tricycle package40 to determine the impact of NAMPT on cell cycle of diabetic wounds.
# [3] = pseudotime lineage analysis, relative to control wounds
molecule,measurement,setting,value
"NAMPT: Nicotinamide phosphoribosyltransferase protein, rate-limiting enzyme of the salvage NAD synthesis pathway; human sequence SEQ ID NO: 1; recombinant (protein, listed as Homo sapiens) MNPAAEAEFNILLATDSYKVTHYKQYPPNTSKVYSYFECREKKTENSKLRKVKYEETVFYGLQYILNKYLKGKVVTKEKIQEAKDVYKEHFQDDVFNEKGWNYILEKYDGHLPIEIKAVPEGFVIPRGNVLFTVENTDPECYWLTNWIETILVQSWYPITVATNSREQKKILAKYLLETSGNLDGLEYKLHDFGYRGVSSQETAGIGASAHLVNFKGTDTVAGLALIKKYYGTKDPVPGYSVPAAEHSTITAWGKDHEKDAFEHIVTQFSSVPVSVVSDSYDIYNACEKIWGEDLRHLIVSRSTQAPLIIRPDSGNPLDTVLKVLEILGKKFPVTENSKGYKLLPPYLRVIQGDGVDINTLQEIVEGMKQKMWSIENIAFGSGGGLLQKLTRDLLNCSFKCSYVVTNGLGINVFKDPVADPNKRSKKGRLSLHRTPAGNFVTLEEGKGDLEEYGQDLLHTVFKNGKVTKSYSFDEIRKNAQLNIELEAAHH",skin regeneration,nondiabetic wounds,sufficient to regenerate all tissues of the skin
same,skin regeneration,"diabetic wounds [1]; diabetic wounds, versus control hydrogel",sufficient to regenerate all tissues of the skin
same,percentage of area staining positive for Keratin15,"diabetic wounds [1]; immunohistochemistry, diabetic wounds vs control, n=3, p=0.0166",significantly increases
same,percentage of area staining positive for b-catenin,"diabetic wounds [1]; immunohistochemistry, diabetic wounds vs control, n=3, p=0.0332",significantly increases
same,mean number of hair follicles per field,"hair follicles; 15 fields at 200× magnification, counted manually, unblinded",33.93
same,"Difference between means (B − A) ± SEM, hair follicles per field","hair follicles; NAMPT group minus control group, unpaired t test",6.467 ± 2.329
same,"hair follicles, histological analysis versus control",hair follicles; NAMPT treated mice skin versus control,significant increase; also recorded: increased hair follicles
same,hair growth,"hair follicles; intradermal injection every 48 hours, compared to control",promoted hair growth visibly by 10 and 14 days
same,Wnt-Fzd ligand-receptor interactions,diabetic wounds [2]; CellChat analysis,"increased diversity, number, and strength"
same,"gene expression for collagens Col1a1, Col1a2, Col3a1, Col5a2, Col6a1","diabetic wounds [2]; Cluster #0 fibroblasts, treated vs control",significantly increased
same,"epidermal stem cell markers Krt5, Krt14, Krt15, Trp63, Itgb1, Itga6","diabetic wounds [2]; Cluster #1 undifferentiated epidermal cells, compared to controls",significantly higher
same,"KEGG oxidative phosphorylation, fatty acid metabolism, TCA cycle, mTOR signaling and pyruvate metabolism pathways",diabetic wounds [2]; KEGG pathway analysis,significantly enhances
same,"proportion of cells in the S phase, G2/M phase, and M phase","diabetic wounds [2]; Tricycle cell cycle analysis, compared to controls",increases
same,Hgf signaling,diabetic wounds [2]; epidermal stem cell populations,promoted
same,Krt79+ and Krt6a/Krt6b+ cells,"diabetic wounds [2]; pseudotime lineage analysis, relative to control treated wounds",enriched
same,Krt77+ cells,diabetic wounds [2]; [3],increased
same,Pparg+/Fasn+ cells,diabetic wounds [2]; [3],enriched
same,"immune pathways (MHC-II, CD6, ALCAM, VISTA, MHC-I, CD80)",diabetic wounds [2]; treated diabetic wounds,upregulated
same,"pro-inflammatory pathways, including TNF and IL1",diabetic wounds [2]; treated diabetic wounds,activation
